# Numbered stars: 1 amine (or outer) side, 2 acyl side, 3 side chain; on linkers, the order of the positions; unused ones are H or OH. Bridge positions count the residues as written; N and C are the ends. * marks the point of attachment. C20 diacid = O=C(O)CCCCCCCCCCCCCCCCCCC(=O)*; γGlu = O=C(O)[C@H](CCC(=O)[*:2])N[*:1]
# T1: human amylin receptor (amylin 3(a) receptor: human calcitonin receptor with RAMP-3) (human, UniProt P30988 25-474; O60896 24-148)
# T1 construct: whole, on cells; also called hAmylin-R; hAmylinR
# T1 sequence (looked up) 1: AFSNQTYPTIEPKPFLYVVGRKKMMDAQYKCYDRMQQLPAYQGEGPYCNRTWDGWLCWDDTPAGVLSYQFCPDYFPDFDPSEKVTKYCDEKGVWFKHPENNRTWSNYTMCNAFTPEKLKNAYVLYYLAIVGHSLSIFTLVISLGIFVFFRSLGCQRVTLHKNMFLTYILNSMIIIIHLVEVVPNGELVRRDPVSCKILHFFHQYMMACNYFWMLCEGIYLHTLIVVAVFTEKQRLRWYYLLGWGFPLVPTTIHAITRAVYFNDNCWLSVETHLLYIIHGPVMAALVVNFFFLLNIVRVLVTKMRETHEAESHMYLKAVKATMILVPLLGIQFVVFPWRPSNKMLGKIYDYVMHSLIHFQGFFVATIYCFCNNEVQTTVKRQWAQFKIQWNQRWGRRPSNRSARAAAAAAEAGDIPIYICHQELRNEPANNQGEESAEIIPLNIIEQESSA
# T1 sequence (looked up) 2: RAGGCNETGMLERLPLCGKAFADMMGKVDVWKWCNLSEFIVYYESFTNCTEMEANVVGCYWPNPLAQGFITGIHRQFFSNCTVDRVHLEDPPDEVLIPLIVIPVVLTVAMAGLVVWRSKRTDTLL
# Molecular target: T1, human amylin receptor (amylin 3(a) …)
# Assay: SPA displacement of 125I-rat amylin, hAmylin 3(a) receptor membranes
# Protocol: The binding assay was performed using scintillation proximity assay (SPA) beads (RPNQ0001) from PerkinElmer and cell membranes from the Amylin 3(a)/CRE-luc cells (as described in Assay (II)) were used. Membranes were prepared in the following way; the cells were rinsed with PBS and incubated with Versene for approximately 5 min before harvesting. The cells were flushed with PBS and the cell-suspension was centrifuged for 5 min at 1000 rpm. Cells were homogenized (ultrathurrax) in a buffer containing 20 mM Na-HEPES and 10 mM EDTA (pH 7.4) and centrifuged at 20.000 rpm for 15 min. The resulting pellet was resuspended, homogenized and centrifuged (20.000 rpm, 15 min) in a buffer containing 20 mM Na-HEPES and 0.1 mM EDTA (pH 7.4, buffer 2). The resulting pellet was resuspended in buffer 2 and protein concentration was measured (BCA protein Assay, Pierce). The homogenate was kept cold during the whole procedure. The membranes were kept at −80° C. until use. The assay was performed in a 384 well Optiplate (PerkinElmer) in a total volume of 40 ul. Membranes were mixed with SPA beads. Final concentration of membranes 35 ng/μL final and SPA beads was 0.05 mg/well. Test-compounds were dissolved in DMSO and further diluted in assay buffer (50 mM Hepes, pH 7.4, 1 mM CaCl2, 5 mM MgCl₂, 0.1% OA and 0.02% Tween20). […] The final mixture was incubated with shaking at 400 rpm for 120 min at 25° C. prior to centrifugation (1500 rpm, 10 min). Samples were analyzed on TopCounter™ (Packard). The IC₅₀ was calculated using (one site binding competition analysis) GraphPad Prism5 as a measure of receptor affinity.
row,Binder,IC50 [nM]
1,"{C20 diacid-γGlu}-KCNTATCATQRLAEFLRHSSPNFGAPLSSTNVGSNTP-NH2 (disulfide 2-7; SMILES CC(C)C[C@H](NC(=O)[C@H](CCCNC(=N)N)NC(=O)[C@H](CCC(N)=O)NC(=O)[C@@H](NC(=O)[C@H](C)NC(=O)[C@@H]1CSSC[C@H](NC(=O)[C@H](CCCCN)NC(=O)CC[C@H](NC(=O)CCCCCCCCCCCCCCCCCCC(=O)O)C(=O)O)C(=O)N[C@@H](CC(N)=O)C(=O)N[C@@H]([C@@H](C)O)C(=O)N[C@@H](C)C(=O)N[C@@H]([C@@H](C)O)C(=O)N1)[C@@H](C)O)C(=O)N[C@@H](C)C(=O)N[C@@H](CCC(=O)O)C(=O)N[C@@H](Cc1ccccc1)C(=O)N[C@@H](CC(C)C)C(=O)N[C@@H](CCCNC(=N)N)C(=O)N[C@@H](Cc1c[nH]cn1)C(=O)N[C@@H](CO)C(=O)N[C@@H](CO)C(=O)N1CCC[C@H]1C(=O)N[C@@H](CC(N)=O)C(=O)N[C@@H](Cc1ccccc1)C(=O)NCC(=O)N[C@@H](C)C(=O)N1CCC[C@H]1C(=O)N[C@@H](CC(C)C)C(=O)N[C@@H](CO)C(=O)N[C@@H](CO)C(=O)N[C@H](C(=O)N[C@@H](CC(N)=O)C(=O)N[C@H](C(=O)NCC(=O)N[C@@H](CO)C(=O)N[C@@H](CC(N)=O)C(=O)N[C@H](C(=O)N1CCC[C@H]1C(N)=O)[C@@H](C)O)C(C)C)[C@@H](C)O, also called compound 5)",0.374
2,"{C20 diacid-γGlu}-KCNTATCATQRLAEFLRHSSPNFGAIPSPTNVGSNTY-NH2 (disulfide 2-7; SMILES CC[C@H](C)[C@H](NC(=O)[C@H](C)NC(=O)CNC(=O)[C@H](Cc1ccccc1)NC(=O)[C@H](CC(N)=O)NC(=O)[C@@H]1CCCN1C(=O)[C@H](CO)NC(=O)[C@H](CO)NC(=O)[C@H](Cc1c[nH]cn1)NC(=O)[C@H](CCCNC(=N)N)NC(=O)[C@H](CC(C)C)NC(=O)[C@H](Cc1ccccc1)NC(=O)[C@H](CCC(=O)O)NC(=O)[C@H](C)NC(=O)[C@H](CC(C)C)NC(=O)[C@H](CCCNC(=N)N)NC(=O)[C@H](CCC(N)=O)NC(=O)[C@@H](NC(=O)[C@H](C)NC(=O)[C@@H]1CSSC[C@H](NC(=O)[C@H](CCCCN)NC(=O)CC[C@H](NC(=O)CCCCCCCCCCCCCCCCCCC(=O)O)C(=O)O)C(=O)N[C@@H](CC(N)=O)C(=O)N[C@@H]([C@@H](C)O)C(=O)N[C@@H](C)C(=O)N[C@@H]([C@@H](C)O)C(=O)N1)[C@@H](C)O)C(=O)N1CCC[C@H]1C(=O)N[C@@H](CO)C(=O)N1CCC[C@H]1C(=O)N[C@H](C(=O)N[C@@H](CC(N)=O)C(=O)N[C@H](C(=O)NCC(=O)N[C@@H](CO)C(=O)N[C@@H](CC(N)=O)C(=O)N[C@H](C(=O)N[C@@H](Cc1ccc(O)cc1)C(N)=O)[C@@H](C)O)C(C)C)[C@@H](C)O, also called 37; compound 37)",0.97
3,"{C20 diacid-γGlu}-KCNTATCATQRLAEFLRHSSPNFGAIPSSTNVGSRTY-NH2 (disulfide 2-7; SMILES CC[C@H](C)[C@H](NC(=O)[C@H](C)NC(=O)CNC(=O)[C@H](Cc1ccccc1)NC(=O)[C@H](CC(N)=O)NC(=O)[C@@H]1CCCN1C(=O)[C@H](CO)NC(=O)[C@H](CO)NC(=O)[C@H](Cc1c[nH]cn1)NC(=O)[C@H](CCCNC(=N)N)NC(=O)[C@H](CC(C)C)NC(=O)[C@H](Cc1ccccc1)NC(=O)[C@H](CCC(=O)O)NC(=O)[C@H](C)NC(=O)[C@H](CC(C)C)NC(=O)[C@H](CCCNC(=N)N)NC(=O)[C@H](CCC(N)=O)NC(=O)[C@@H](NC(=O)[C@H](C)NC(=O)[C@@H]1CSSC[C@H](NC(=O)[C@H](CCCCN)NC(=O)CC[C@H](NC(=O)CCCCCCCCCCCCCCCCCCC(=O)O)C(=O)O)C(=O)N[C@@H](CC(N)=O)C(=O)N[C@@H]([C@@H](C)O)C(=O)N[C@@H](C)C(=O)N[C@@H]([C@@H](C)O)C(=O)N1)[C@@H](C)O)C(=O)N1CCC[C@H]1C(=O)N[C@@H](CO)C(=O)N[C@@H](CO)C(=O)N[C@H](C(=O)N[C@@H](CC(N)=O)C(=O)N[C@H](C(=O)NCC(=O)N[C@@H](CO)C(=O)N[C@@H](CCCNC(=N)N)C(=O)N[C@H](C(=O)N[C@@H](Cc1ccc(O)cc1)C(N)=O)[C@@H](C)O)C(C)C)[C@@H](C)O, also called 16; compound 16)",0.894
4,"{C20 diacid-γGlu}-KCNTATCATQRLAEFLRHSSPNFGAPLSSTNVGSNTY-NH2 (disulfide 2-7; SMILES CC(C)C[C@H](NC(=O)[C@H](CCCNC(=N)N)NC(=O)[C@H](CCC(N)=O)NC(=O)[C@@H](NC(=O)[C@H](C)NC(=O)[C@@H]1CSSC[C@H](NC(=O)[C@H](CCCCN)NC(=O)CC[C@H](NC(=O)CCCCCCCCCCCCCCCCCCC(=O)O)C(=O)O)C(=O)N[C@@H](CC(N)=O)C(=O)N[C@@H]([C@@H](C)O)C(=O)N[C@@H](C)C(=O)N[C@@H]([C@@H](C)O)C(=O)N1)[C@@H](C)O)C(=O)N[C@@H](C)C(=O)N[C@@H](CCC(=O)O)C(=O)N[C@@H](Cc1ccccc1)C(=O)N[C@@H](CC(C)C)C(=O)N[C@@H](CCCNC(=N)N)C(=O)N[C@@H](Cc1c[nH]cn1)C(=O)N[C@@H](CO)C(=O)N[C@@H](CO)C(=O)N1CCC[C@H]1C(=O)N[C@@H](CC(N)=O)C(=O)N[C@@H](Cc1ccccc1)C(=O)NCC(=O)N[C@@H](C)C(=O)N1CCC[C@H]1C(=O)N[C@@H](CC(C)C)C(=O)N[C@@H](CO)C(=O)N[C@@H](CO)C(=O)N[C@H](C(=O)N[C@@H](CC(N)=O)C(=O)N[C@H](C(=O)NCC(=O)N[C@@H](CO)C(=O)N[C@@H](CC(N)=O)C(=O)N[C@H](C(=O)N[C@@H](Cc1ccc(O)cc1)C(N)=O)[C@@H](C)O)C(C)C)[C@@H](C)O, also called compound 7) [N^α1-[(4S)-4-carboxy-4-(19-carboxynonadecanoylamino)butanoyl]-[Glu14,Arg17,Pro21,Pro26]-h-amylin]",0.674
5,"{C20 diacid-γGlu}-KCNTATCATQRLAEFLRHSSPNFGAIPSSTNVGSDTP-NH2 (disulfide 2-7; SMILES CC[C@H](C)[C@H](NC(=O)[C@H](C)NC(=O)CNC(=O)[C@H](Cc1ccccc1)NC(=O)[C@H](CC(N)=O)NC(=O)[C@@H]1CCCN1C(=O)[C@H](CO)NC(=O)[C@H](CO)NC(=O)[C@H](Cc1c[nH]cn1)NC(=O)[C@H](CCCNC(=N)N)NC(=O)[C@H](CC(C)C)NC(=O)[C@H](Cc1ccccc1)NC(=O)[C@H](CCC(=O)O)NC(=O)[C@H](C)NC(=O)[C@H](CC(C)C)NC(=O)[C@H](CCCNC(=N)N)NC(=O)[C@H](CCC(N)=O)NC(=O)[C@@H](NC(=O)[C@H](C)NC(=O)[C@@H]1CSSC[C@H](NC(=O)[C@H](CCCCN)NC(=O)CC[C@H](NC(=O)CCCCCCCCCCCCCCCCCCC(=O)O)C(=O)O)C(=O)N[C@@H](CC(N)=O)C(=O)N[C@@H]([C@@H](C)O)C(=O)N[C@@H](C)C(=O)N[C@@H]([C@@H](C)O)C(=O)N1)[C@@H](C)O)C(=O)N1CCC[C@H]1C(=O)N[C@@H](CO)C(=O)N[C@@H](CO)C(=O)N[C@H](C(=O)N[C@@H](CC(N)=O)C(=O)N[C@H](C(=O)NCC(=O)N[C@@H](CO)C(=O)N[C@@H](CC(=O)O)C(=O)N[C@H](C(=O)N1CCC[C@H]1C(N)=O)[C@@H](C)O)C(C)C)[C@@H](C)O, also called 11; compound 11)",0.105
6,"{C20 diacid-γGlu}-KCNTATCATQRLAEFLRHSSPNFGAIPSSTNVGSHTY-NH2 (disulfide 2-7; SMILES CC[C@H](C)[C@H](NC(=O)[C@H](C)NC(=O)CNC(=O)[C@H](Cc1ccccc1)NC(=O)[C@H](CC(N)=O)NC(=O)[C@@H]1CCCN1C(=O)[C@H](CO)NC(=O)[C@H](CO)NC(=O)[C@H](Cc1c[nH]cn1)NC(=O)[C@H](CCCNC(=N)N)NC(=O)[C@H](CC(C)C)NC(=O)[C@H](Cc1ccccc1)NC(=O)[C@H](CCC(=O)O)NC(=O)[C@H](C)NC(=O)[C@H](CC(C)C)NC(=O)[C@H](CCCNC(=N)N)NC(=O)[C@H](CCC(N)=O)NC(=O)[C@@H](NC(=O)[C@H](C)NC(=O)[C@@H]1CSSC[C@H](NC(=O)[C@H](CCCCN)NC(=O)CC[C@H](NC(=O)CCCCCCCCCCCCCCCCCCC(=O)O)C(=O)O)C(=O)N[C@@H](CC(N)=O)C(=O)N[C@@H]([C@@H](C)O)C(=O)N[C@@H](C)C(=O)N[C@@H]([C@@H](C)O)C(=O)N1)[C@@H](C)O)C(=O)N1CCC[C@H]1C(=O)N[C@@H](CO)C(=O)N[C@@H](CO)C(=O)N[C@H](C(=O)N[C@@H](CC(N)=O)C(=O)N[C@H](C(=O)NCC(=O)N[C@@H](CO)C(=O)N[C@@H](Cc1c[nH]cn1)C(=O)N[C@H](C(=O)N[C@@H](Cc1ccc(O)cc1)C(N)=O)[C@@H](C)O)C(C)C)[C@@H](C)O, also called 18; compound 18)",0.554

# Reference: patent US20140087995A1 (published 2014)
